Molecular target: SARS-CoV-2 spike protein on spike pseudotyped lentivirus particles or authentic SARS-CoV-2 (SARS-CoV-2) (UniProt P0DTC2)
Assay: cell-based or functional assay

Wild type ACE2(614)-Fc (Fc fusion)
IC50 (µg/ml), pseudovirus: 0.43 µg/mL
